# Test results published in patent publication US20240245800A1, “HIGHLY SPECIFIC RABBIT SINGLE -DOMAIN ANTIBODIES FOR DRUG DELIVERY IN IMMUNOTHERAPY APPLICATIONS” (TECHNOPHAGE, INVESTIGAÇÃO E DESENVOLVIMENTO EM …, priority 2021, published 2024).
# T1: Human Topoisomerase I (Homo sapiens, UniProt P11387)
# T1 construct: purchased Topogen
# T1 sequence (P11387 1-765): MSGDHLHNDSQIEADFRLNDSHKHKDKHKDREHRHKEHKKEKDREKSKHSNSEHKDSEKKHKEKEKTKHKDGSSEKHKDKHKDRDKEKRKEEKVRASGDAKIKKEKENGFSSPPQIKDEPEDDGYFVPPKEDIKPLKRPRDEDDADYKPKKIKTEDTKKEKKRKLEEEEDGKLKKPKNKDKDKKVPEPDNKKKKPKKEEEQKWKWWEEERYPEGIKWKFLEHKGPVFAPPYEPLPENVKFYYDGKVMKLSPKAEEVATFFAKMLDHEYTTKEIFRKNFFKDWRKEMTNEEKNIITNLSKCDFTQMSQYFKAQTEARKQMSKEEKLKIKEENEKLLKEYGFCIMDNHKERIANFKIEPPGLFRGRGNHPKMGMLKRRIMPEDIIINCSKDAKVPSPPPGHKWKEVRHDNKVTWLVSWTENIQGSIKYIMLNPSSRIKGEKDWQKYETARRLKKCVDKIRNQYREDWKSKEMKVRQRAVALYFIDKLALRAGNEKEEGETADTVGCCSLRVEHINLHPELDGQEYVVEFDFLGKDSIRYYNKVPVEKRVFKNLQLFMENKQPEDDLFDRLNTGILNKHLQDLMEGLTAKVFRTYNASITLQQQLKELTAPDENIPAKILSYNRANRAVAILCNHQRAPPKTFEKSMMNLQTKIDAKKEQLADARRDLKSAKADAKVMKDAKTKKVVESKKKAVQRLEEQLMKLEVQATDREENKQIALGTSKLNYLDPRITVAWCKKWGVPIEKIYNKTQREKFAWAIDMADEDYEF
# B1: E1: rabbit derived anti-cNHL VL sdAb clone, SEQ. ID. 4 (antibody, listed as Oryctolagus cuniculus, V domains shown)
# VL: ELVMTQTPSPVSAAVGGTVTIACQSSQSVYSGTLLSWYQQKPGQSPKLLIHEASTLASGVPSRFKGSGSGTQFTLTISDLECADAATYYCLGGFDDDADNAFGGGTELEIL
# B2: B12: rabbit derived anti-cNHL VL sdAb clone, SEQ. ID. 6 (antibody, listed as Oryctolagus cuniculus, V domains shown)
# VL: ELVLTQTPASVEAAVGGTVTIKCQASQSIGSYLAWYQQKPGQPPKLLIYGASTLASGVPSRFSGSRSDTQFSLTISDLECADAATYYCQGYYYSDSSSYVNTFGGGTEVVVK
# B3: C8: rabbit derived anti-cNHL VL sdAb clone, SEQ. ID. 2 (antibody, listed as Oryctolagus cuniculus, V domains shown)
# VL: ELVMTQTPSSVSAAVGGTVTINCRASEDIESYLAWYQQKPGQPPKRLIYGASNLASGVSSRFKGSGSGTDFTLTISDLECADAATYYCQCIVGGSTYGNVFGGGTELEIL
# B4: E2: rabbit derived anti-cNHL VL sdAb clone, SEQ. ID. 5 (antibody, listed as Oryctolagus cuniculus, V domains shown)
# VL: ELDLTQTPPSLSASVGGTVTINCQASESISNYLAWYQQKPGQPPKLLIYGASNLESGVPSRFRGSGSGTEFTLTISDMKAEDAATFYCQSGYYTAGDLTFGAGTNVEIK
# B5: A12: rabbit derived anti-cNHL VL sdAb clone, SEQ. ID. 1 (antibody, listed as Oryctolagus cuniculus, V domains shown)
# VL: ELVMTQTPSSVSAAVGGTATIDCQSTKSVYNNNALSWYQQKPGQPPKLLIYRASTLTSGVPSRFSGSGSGTQFTLTINDVQCDDAATYYCQGGISGSSDAPFGGGTEVVVK
# B6: RG22: rabbit derived BBB targeting VL sdAb clone, SEQ. ID 44 to 48 series; ^99mTc(CO)3-labelled in Table 1 (antibody, listed as Oryctolagus cuniculus, V domains shown)
# VL: ELVLTQTPASVEAAVGGTVTINCQASQSVYNNKNLAWYQQKPGQPPKLLIYRASTLASGVPSRFSGSGSGTQFTLTISGAQCDDAATYYCQGEFSCSSGDCIAFGGGTEVVVK
# modifications: 99mTc(CO)3 label
# B7: RG23: rabbit derived BBB targeting VL sdAb clone, SEQ. ID 44 to 48 series; ^99mTc(CO)3-labelled in Table 1 (antibody, listed as Oryctolagus cuniculus, V domains shown)
# VL: ELVMTQTPASVSEPVGGTVTIKCQASQSIGNALAWYQQKPGQPPKLLIYGASNLESGVPSRFKGSGSGTEFTLTISDLECADAATYYCQSYYYSSSSSYGSYAFGGGTEVVVK
# modifications: 99mTc(CO)3 label
# B8: RG3: rabbit derived BBB targeting VL sdAb clone, SEQ. ID 44; ^99mTc(CO)3-labelled in Table 1 (antibody, listed as Oryctolagus cuniculus, V domains shown)
# VL: ELVMTQTPSPVSAAMGGTVSISCQSSKSVANNNELSWYQQKPGQPPKLLIYEASKLASGVPSRFKGSGSGTQFTLTISDVQCDDAATYYCLGDYYSSSDNAFGGGTEVVVK
# modifications: 99mTc(CO)3 radiolabel
# System: CLBL-1 cell extracts
# Experiment: ELISA screening of anti-cNHL VL sdAb clones
# Assay type: binding, canine
# Settings: clone supernatants, CLBL-1 extracts
# Description: After the phage display selection, in order to express and select the best anti-cNHL VL sdAbs, phagemid DNA derived from the in vivo output selection was cloned into a PT7-PL vector and transformed into an E. coli strain BL21. Then, individual clones were auto induced, and the supernatant tested in ELISA assays against CLBL-1 and Jurkat cell extracts. To select the best lead candidates, three parameters were evaluated: binding against cNHL, expression yields, and unspecific binding. […] After selection, to characterize the selected clones, the 43 best lead candidates were analysed by sanger sequencing (FIG. 6B). To get further insights of the enriched sequences during the in vivo phage display selection, we performed next generation sequencing (NGS) of the biopanning repertoires. NGS allows massive sequence analysis of the panning population, enabling a genomic assessment of the library diversity and frequency of each clone. Two samples were sequenced: biopanning from the CLBL-1 tumour models and initial immune VL sdAb cNHL library (FIG. 7). Upon bioinformatic analysis of the NGS data, we were able to determine the diversity of each sample and identify the most represented clones. A total of 34880 sequences were obtained for the biopanning from the CLBL-1 tumours. The NHL library obtained a total of 48864 sequences. The number of singletons, consisting of the sequences with a single occurrence, varied between samples, ranging from 76.8% in the library, and 33.3% in the in vivo biopanning from the CLBL-1. Through the comparison of the sequence prevalence between the biopannings and the library, we were able to verify that the number of occurrences in each sequence was higher in the biopanning clones. […] By comparing ELISA data, sanger sequencing and NGS analysis, the six best clones (A12, C8, C5, E1, E2, and B12) were produced and purified. Due to its binding characteristics and production properties, C5 sdAb clone was chosen to be thoroughly characterized and used in the development of the proposed ADC.
# To express and select anti-NHL-sdAbs, phagemid DNA encoding selected anti-cNHL sdAbs was cloned into PT7-PL (PT7-peptide leader) vector and transformed into E. coli strain BL21. Individual colonies were inoculated in 100 μl of Super Broth (SB) medium containing Overnight Express™ Autoinduction System (Novagen®) and 100 μg/ml of ampicillin and incubated overnight at 30° C. Next day, 40 μl of BugBuster (Roche) containing anti-protease cocktail-EDTA free inhibitors (Roche) were added and incubated for 30 min at 4° C. Then, plates were centrifuged at 1200 rpm and the supernatant was tested in ELISA assays. Three different conditions were assessed: binding to the sdAbs to the antigen, expression level and unspecific binding. After coating the wells with CLBL-1 cell extracts or Raji cell extracts for 1 h at 37° C., wells were blocked with 3% BSA in PBS. Then, wells were washed with PBS and clones were added and incubated for 1 h, at 37° C. Next, plates were washed and incubated with anti-HA HRP antibody (Roche). Finally, after 1 h incubation, plates were washed and ABTS (Roche) was added and optical density at 405 nm was measured at different time points. To evaluate the expression level, the same protocol was applied, excluding antigen coating.
# For unspecific binding, antigen was replaced by 3% BSA. Rabbit sera and anti-CD20 antibody were used as positive controls. BL21 cell extracts were used as negative controls. In the end, the ten best individual clones were sequenced at Eurofins company. Sequence analysis was performed using the Vector Nti software (Invitrogen). The antibody frameworks, CDRs and the amino acid numbering and sequences followed the rules described by Kabat et al. (1991) Sequences of proteins of immunological interest. Bethesda, MD, U.S. Dept. of Health and Human Services, Public Health Service, National Institutes of Health. […]
row,Molecule,ELISA signal against NHL cells
1,B1,best results
2,B2,best results
3,B3,best results
4,B4,best results
5,B5,best results

# Target: T1, Human Topoisomerase I
# Experiment: DNA Topo I activity assay (Human Topoisomerase I Assay Kit)
# Assay type: biochemical
# Settings: 10 U Topo I, supercoiled DNA, agarose gel
# Description: FIG. 11—Cytotoxic effects of C5-DAB-SN-38. To determine the effect of C5-DAB-SN-38 on CLBL-1 and Jurkat cells, a cell viability assay was performed using the WST-1 reagent. 6×10^4 cells were seeded and treated with increasing amounts of compound. After 48 h treatment, cell viability was assessed. […] B) On the other hand, ADC had no effect on Jurkat cells, proving the specificity of the ADC. C5 was used as control. Best-fit EC50 values of each formulation were calculated using GraphPad Prism software (version 9.2.0, San Diego, CA, USA) using the log (inhibitor) vs response (variable slope) function. D) Effects of C5-DAB-SN-38 on DNA TopoI activity. To evaluate the effects of C5-DAB-SN-38 on DNA Topo I, we evaluated its activity using the Human Topoisomerase I Assay Kit. After incubation of C5-DAB-SN-38 with 1× reaction buffer and 10 U of Topo I for 1 h at 37° C., the supercoiled DNA was added. To stop the reaction, stop loading buffer was added. DNA TopoI activity was visualized by 1% agarose gel electrophoresis […] with ethidium bromide. Relaxed DNA indicated TopoI activity while supercoiled DNA indicated an inhibition. […] Relaxed DNA and supercoiled DNA were used as positive/negative controls. C5 and SN-38 were also used as controls.
# Topo I activity on VL-DAB-SN38 was determined using the Human Topoisomerase I Assay Kit (Topogen, CO, USA) according to the manufacturer's instructions. […]
row,Molecule,effect on DNA Topo I activity
1,"CCc1c2c(nc3ccc(O)cc13)-c1cc3c(c(=O)n1C2)COC(=O)[C@]3(O)CC [SN-38, reference compound]",inhibited

# System: bEnd.3 cell monolayer
# Experiment: In vitro BEB model translocation of sdAbs (western blot)
# Assay type: in vitro ADME, mouse
# Settings: 15 μg sdAb at apex, 90 min, WB
# Description: FIG. 16A 15 μg of each purified sdAb was added to the apex of the transwell and incubated for 90 min.
# FIG. 16B Following incubation period, all volumes were collected from the apex and the base and analysed by WB with anti-HA antibody.
# To determine the in vitro BEB translocation efficiency of the selected VL sdAb, 15 μg of each purified antibody was added to the apex of the transwell and incubated for 15 and 90 min. The incubation time and sdAb concentration were selected based on previous optimization assays (data not shown). Following incubation, the cells were washed once with PBS and three times with TB. Evaluation of the translocation efficiency of each VL sdAb was assessed by running […] of the recovered volume from the apex and the base on a 15% SDS-PAGE acrylamide gel followed by WB analysis with HRP-conjugated […] antibody at 1:3000 (Roche). As a positive control, 100 ng of each purified VL sdAb was used. The FC5 VHH was used as a positive control. The same procedure was performed to evaluate the BEB crossing properties of each purified rabbit serum, but the incubation was performed for 15 and 60 min and the detection was performed with goat-α anti-rabbit IgG-Fc specific HRP at 1:10,000. Chemiluminescence was detected using the Chemidoc XRS+System (Bio-rad).
row,Molecule,in vitro BEB translocation
1,B6,increased in vitro BEB-crossing efficiency
2,B7,increased in vitro BEB-crossing efficiency
3,B8,increased in vitro BEB-crossing efficiency
